# Measurements published in US20250304913A1.
# How the values were obtained:
# OT-I TCR [1] = test: cell-based or functional assay
# OT-I TCR [2] = test: cell-based or functional assay; remark: listed apart in the source
Molecule,proportion of surviving OT-I cells after 18 hours of co-culture (OT-I TCR [1]) [%],proportion of surviving OT-I cells after 36 hours of co-culture (OT-I TCR [1]) [%],proportion of surviving OT-I cells after 60 hours of co-culture (OT-I TCR [1]) [%],IFN-gamma positive bait CAR T cells in the presence of OT-I target cells (OT-I TCR [2]) [%],IL-2 positive bait CAR T cells in the presence of OT-I cells (OT-I TCR [2]) [%],OT-I cells remaining in the population after 48 hours of co-culture (competitive survival assay) (OT-I TCR [2]) [%],activation of bait CAR T cells (expression of CD107a) in the presence of OT-I T cells (OT-I TCR [2]) [%],degranulation of OT-I T cells (CD107a-positive) in co-culture with bait CAR T cells (OT-I TCR [2]) [%]
OVA-MHCI Bait-CD3Zeta Fully Live CAR (peptide-MHC),32.1,19.5,0.69,–,–,–,–,–
OVA-MHCI Bait-SIINFEKL CAR (peptide-MHC) SIINFEKLGGGGSGGGGSGGGGSIQKTPQIQVYSRHPPENGKPNILNCYVTQFHPPHIEIQMLENGKKIPKVEMSDMSFSKDWSFYILAHTEFTPTETDTYACRVKHASMAEPKTVYWDRDMGGGGSGGGGSGGGGSGGGGSGPHSLRYFVTAVSRPGLGEPRYMEVGYVDDTEFVRFDSDAENPRYEPRARWMEQEGPEYWERETQKAKGNEQSFRVDLRTLLGYYNQSKGGSHTIQVISGCEVGSDGRLLRGYQQYAYDGCDYIALNEDLKTWTAADMAALITKHKWEQAGEAERLRAYLEGTCVEWLRRYLKNGNATLLRTDSPKAHVTHHSRPEDKVTLRCWALGFYPADITLTWQLNGEELIQDMELVETRPAGDGTFQKWASVVVPLGKEQYYTCHVYHQGLPEPLTLRWEIEFMYPPPYLDNERSNGTIIHIKEKHLCHTQSSPKLFWALVVVAGVLFCYGLLVTVALCVIWTNSRRNRGGQSDYMNMTPRRPGLTRKPYQPYAPARDFAAYRPRAKFSRSAETAANLQDPNQLFNELNLGRREEFDVLEKKRARDPEMGGKQQRRRNPQEGVYNALQKDKMAEAYSEIGTKGERRRGKGHDGLFQGLSTATKDTFDALHMQTLAPR,–,–,–,11.4,14.9,5.01,24.8,80.4
